# B1: 抗人4-1BB杂交瘤抗体1A2 (antibody, V domains shown)
# VH: EAQLQQSGAELVKPGASVKLSCTASGFNIKDTYMNWMKQRPEQGLEWIGRIAPANGNTKYAPQFQDKATITADTSSNTANLQLSSLTSEDTAVYYCARSYGSNFFDYWGQGTALTVSS
# VL: EIQLTQSPASLAVSLGQRATISCKSSQSVDNYDNSFMHWYQQKPGQPPKLLIKRASNLETGVPARFSGSGSRTDFTLNIHPVEEEDTATYFCQQSVENPFTFGSGTKVELK
# notes: Mouse hybridoma antibody purified on Protein A
# B2: 抗人4-1BB杂交瘤抗体8H8 (antibody, V domains shown)
# VH: QIQLVQSGPELKKPGETVKISCKASGYTFSNYGMNWVKQAPGKGLKWMGWINTHTGEPTYADEFKGRFAFSLETSVSTAYLQINNLKNEDTATYFCARVLTMVMDYWGQGTSVTVSS
# VL: DIVLTQSPASLAVSLGQRATISCRASEIIDGSGNSFVHWYQQKPGQPPKLLIYRTSTLESGIPARFSGSGSRTDFTLTINPVEADDVATYSCLQTVEDPWTFGGGTKLEIK
# notes: as for B1
# B3: 抗人4-1BB杂交瘤抗体10B2 (antibody, V domains shown)
# VH: DVQLVESGGGLVQPGGSRKLSCAASGFTFSTFGLHWVRQAPEKGLEWVAYISSDSNTIYYADTMKGRFTISRDNPKNTLFLQLTSLRSEDTAVYYCTRGDPAYYGYGGRFVYALDFWGQGTSVAVSS
# VL: DVVVTQTPLSLPVSFGDQVSISCRSSQSLTNSYGHTYLSWYLHKPGQSPQLLIYGISIRFSGVPDRFSGSGSGTDFTLRISTVKPEDLGMYYCLQGTHQPWTFGGGTKLEIK
# notes: as for B1
# B4: 抗人4-1BB杂交瘤抗体3F10 (antibody, V domains shown)
# VH: QVQLQQSGAELVRPGASVKISCKAFGFTFTHHHINWVKQRPGQGLDWIGYINPYNDYSIYNQKFEGKATLTVDKSSSTAYMELSRLTSDDSAVYFCARGGLGRGYFDYWGQGTTLTVSS
# VL: DIVMTQSTAIMSASLGEKVTMTCRASSSVTSSYLHWYQQKSGASPKIWISSTSNLASGVPVRFSGSGSGTSYSLTISSVEAEDAATYYCQQYSGNPYTFGGGTKLEIK
# notes: as for B1
# B5: 抗人4-1BB杂交瘤抗体8E9 (antibody, V domains shown)
# VH: QAQLQQSGPELVRPGTSVKMSCKTSGYSFTGYWMHWMKQRPGQGLEWIGMIDPSNSDTRLNQKFKDKATLNVDKSSNTAYMDFSSLTSEDSAVYYCARWRYYGYDGIAYWGQGTLVTVSA
# VL: DIVMTQSPSSLTVTAGEKVTVSCKSSQSLLNSGNQRNYLTWYQQKPGQPPKLLIYWASTRESGVPDHFTGSGSGTDFTLTISSVQAEDLAVYYCQNDYTYPFTFGGGTKLEIK
# notes: as for B1
# B6: 抗人4-1BB杂交瘤抗体8A8 (antibody, V domains shown)
# VH: QVQLKQSGPGLVQPSQSLSITCTVSGFSLTNYGVHWVRQSPGKGLEWLGAIWSGGNTDYSAAFMSRVTINKDNSKSQVFFKMNSLRPDDTAIYYCARNPYYTNVMDYWGQGTSVTVSS
# VL: DIQMTQSPASLSASVGETVTITCRASGNIGNFLAWYQQKQGKSPQLLVYNGETLADGVPSRFSGSGSGTQYSLKINSLQPEDFGSYYCQHFWSTPWTFGGGTKLEIK
# notes: as for B1
# B7: 抗人4-1BB杂交瘤抗体2F10 (antibody, V domains shown)
# VH: QVQLQQSGAALVKPGASVKLSCTASGFNIEDTYLNWVKQRPEQGLEWIGKIYPANGDTKYDPKFQGKATITAETPSNKAYLQLSSLTSEDTAVYYCTRGYGSNFFDCWGQGTSLTVSS
# VL: DIVLTQSPASLAVALGQRATISCRASESVDSYDNSFMHWYQQKVGQPPKLLIYRASNLESGLPARFSGSGSRTDFTLTINPVEADDVATYYCQQSNEDPYTFGGGTKLEII
# notes: as for B1
# B8: 抗人4-1BB杂交瘤抗体3A11 (antibody, V domains shown)
# VH: EVQLVETGGGLVQPNGSLKLSCAASGFIFNTNAMNWVRQAPGKGLEWIARIRSKINNYATYYADSVKDRFTISRDDSQSMLYLQMNNLKTEDTGMYYCNWDEAYWGQGTLVTVSA
# VL: DIQMTQSSSYLSVSLGGRVTVTCKASDHINNWLAWYQQKPGNAPRLLIFGATSLETGVPSRFSGSASGNDYTLTITSLQTEDVATYYCQQYWSIPYTFGGGTKLEIK
# notes: as for B1
# B9: 抗人4-1BB人源化抗体8H8 (antibody, V domains shown)
# VH: QIQLVQSGSELKKPGASVKVSCKASGYTFSNYGMNWVRQAPGQGLEWMGWINTHTGEPTYADEFKGRFVFSLDTSVSTAYLQISSLKAEDTAVYYCARVLTMVMDYWGQGTLVTVSS
# VL: DIVLTQSPDSLAVSLGERATINCRASEIIDGSGNSFVHWYQQKPGQPPKLLIYRTSTLESGVPDRFSGSGSRTDFTLTISSLQAEDVAVYYCLQTVEDPWTFGGGTKVEIK
# notes: Humanised antibody expressed in 293 cells, purified on Protein A, captured by anti-human IgG in Biacore; also called hu8H8
# B10: 抗人4-1BB人源化抗体10B2 (antibody, V domains shown)
# VH: QVQLVESGGGVVQPGRSLRLSCAASGFTFSTFGLHWVRQAPGKGLEWVAYISSDSNTIYYADTMKGRFTISRDNSKNTLYLQMNSLRAEDTAVYYCTRGDPAYYGYGGRFVYALDFWGQGTLVTVSS
# VL: DVVVTQTPLSLSVTPGQPASISCRSSQSLTNSYGHTYLSWYLQKPGQSPQLLIYGISIRFSGVPDRFSGSGSGTDFTLKISRVEAEDVGVYYCLQGTHQPWTFGGGTKVEIK
# notes: Humanised antibody expressed in 293 cells, purified on Protein A, captured by anti-human IgG in Biacore; also called hu10B2
# B11: 抗人4-1BB人源化抗体3A11 (antibody, V domains shown)
# VH: EVQLVESGGGLVKPGGSLRLSCAASGFIFNTNAMNWVRQAPGKGLEWIARIRSKINNYATYYADSVKDRFTISRDDSKNTLYLQMNSLKTEDTAVYYCNWDEAYWGQGTLVTVSS
# VL: DIQMTQSPSSLSASVGDRVTITCKASDHINNWLAWYQQKPGKAPKLLIFGATSLETGVPSRFSGSASGNDYTLTISSLQPEDFATYYCQQYWSIPYTFGQGTKLEIK
# notes: Humanised antibody expressed in 293 cells, purified on Protein A, captured by anti-human IgG in Biacore; also called hu3A11
# B12: 抗人4-1BB人源化抗体1A2 (antibody, V domains shown)
# VH: EAQLVQSGAEVKKPGATVKISCKVSGFNIKDTYMNWVQQAPGKGLEWIGRIAPANGNTKYAPQFQDRATITADTSTDTAYMELSSLRSEDTAVYYCARSYGSNFFDYWGQGTLVTVSS
# VL: EIVLTQSPATLSLSPGERATLSCKSSQSVDNYDNSFMHWYQQKPGQAPRLLIYRASNLETGIPARFSGSGSRTDFTLTISSLEPEDFAVYYCQQSVENPFTFGQGTKLEIK
# notes: Humanised antibody expressed in 293 cells, purified on Protein A, captured by anti-human IgG in Biacore; also called hu1A2
# Target: T1, 人4-1BB on Jurkat-4-1BB细胞 (human, UniProt Q07011 24-255)
# T1 construct: whole, on cells; the reporter line Jurkat-4-1BB-NFkB-luc carries the same receptor; also called Jurkat-4-1BB-NFkB-luc; CD137
# T1 sequence (Q07011 24-255): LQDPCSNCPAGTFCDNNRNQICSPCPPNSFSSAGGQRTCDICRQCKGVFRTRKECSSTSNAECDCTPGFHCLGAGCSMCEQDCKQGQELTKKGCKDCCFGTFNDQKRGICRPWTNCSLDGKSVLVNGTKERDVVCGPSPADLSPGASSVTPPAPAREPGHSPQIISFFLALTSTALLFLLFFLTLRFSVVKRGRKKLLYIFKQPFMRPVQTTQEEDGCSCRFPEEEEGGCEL
# Experiment: FACS on Jurkat-4-1BB cells
row,Binder,binding result
1,B1,binds
2,B2,binds
3,B3,binds
4,B4,binds
5,B5,binds
6,B6,binds
7,B7,binds
8,B8,binds
9,B9,binds
10,B10,binds
11,B11,binds
12,B12,binds

# Target: T2, 4-1BB-ECD-hFc (human, UniProt Q07011 24-186)
# T2 construct: extracellular domain; Coated on the ELISA plate; also called 4-1BB-hFc; 4-1BB-hFc蛋白; not shown: human Fc (hFc)
# Experiment: ELISA, method as in Example 1
row,Binder,binding result
1,B9,binds
2,B10,binds
3,B11,binds
4,B12,binds

# Target: T2, 4-1BB-ECD-hFc
# Experiment: ELISA, 4-1BB-ECD-hFc coated
row,Binder,binding result
1,B1,binds
2,B2,binds
3,B3,binds
4,B4,binds
5,B5,binds
6,B6,binds
7,B7,binds
8,B8,binds
